Here are results for seven molecules from patent US20210371503A1 (UNIVERSITY OF COLOGNE, published 2021).

Positions count from the first letter of the chain named. Read-outs that look alike come from different tables or passages of the source.

For assay [1], the target named is T1, prefusion stabilized SARS-CoV-2 S ectodomain (SARS-CoV-2, UniProt P0DTC2 14-1208).
T1 construct: also called SARS-CoV-2 spike ectodomain; ectodomain of the spike (S) homotrimer of SARS-CoV-2
Kind of assay: ELISA, coated S ectodomain [cont'd].

The target of assay [2] is T1, prefusion stabilized SARS-CoV-2 S …. Kind of assay: assay not stated; row Binding Affinity Spike Trimer, construct not given.
Assay [3] shares this target. Kind of assay: ELISA, coated S ectodomain [cont'd]. The source holds these as a separate data set. In general terms: ELISA stands for enzyme-linked immunosorbent assay.

B1: MnC4t2p2_A4 (antibody, V domains shown)
VH: QVQLVQSGSELKKPGASVKISCKASGYIFINYAMNWVRQAPGQGLEWMGWINTNTGNPTYAQDFTGRFVFSLDTSLSTAYLQISSLEAEDTAVYYCAKIGSRNSLGVWGQGTLVTVSA
VL: EIVLTQSPGTLSLSPGERATLSCRASHSVDRSYLAWYQQKPGLAPRLLIYGASSRATGIPDRFSGSGSGTDFTLTISRLEPEDFALYYCQHFGTSSVTFGRGTRLEIK
Broadly, the EC50 is the midpoint of the concentration-response curve. The low end stands for a more potent agent, the high end for a less potent agent. Regarding B1, in assay [1], it took 0.02 mg/L to reach a half-maximal effect (EC50).

B2: DZIF-10c (antibody, V domains shown)
VH: QVQLVESGGGVVQPGRSLRLSCAATGFTFRRYGMHWVRQAPGKGLEWVAGILFDGSNKYYVDSVKGRFTISRDSSRNTLYLQLNSLRREDTAVYYCAKGGDYEWELLESWGQGTLVTVSS
VL: DIQMTQSPSTVSASVGDRVTITCRASQSIDNWLAWYQEKPGKAPKVLIYKASSLESGVPSRFSGRGSGTEFTLTISSLQPGDFATYYCQHYHSFPLTFGGGTKVDIKR
notes: also called HbnC3t1p1_F4(-K); EX14870
For orientation: Kd means a measure of binding affinity in units of concentration. On to B2, for which the Kd in assay [2] is 0.65 nM.

B3: MnC4t2p1_B3 (antibody, V domains shown)
VH: EVQLVESGGHLVQPGRSLRLSCAASGFTFDDYAMHWVRQVPGKGLEWVSGISWNGGILDYADSVKGRFTISRDNAKNSLYLHMRSLRTDDTALYYCAKDLRRQDYYADWYFDLWGRGTLVTVSS
VL: DIQMIQSPSSVSASVGDRVTITCRASQGISSWLAWYQQKPGKAPKLLIYAASTLLSAVPSRFSGSGSGTDFTLTISSLQPEDFATYYCQQGNSFPFTFGPGTIVDV
B3 registered a half-maximal effective concentration (EC50) in assay [3] of 0.06 mg/L.

B4: MnC4t2p1_E6 (antibody, V domains shown)
VH: B3 VH with D59G, H82Q
VL: B3 VL with I5T, I103K
For B4, in assay [1], the EC50 came to 0.03 mg/L.

B5: MnC5t2p1_G1 (antibody, V domains shown)
VH: QMQLVQSGPEVKKPGTSVKVSCKASGFTFTSSAVQWVRQARGQRLEWIGWIVVGSGNTDYAQKFQERVTITRDVSTSTAYMELSSLRSEDTAVYYCAAPRCSGGSCYDGFDIWGQGTMVTVSS
VL: EIVLTQSPGTLSLSPGERATLSCRASQSVSSSYLAWYQHKPGQAPRLLICGASSRATGIPDRFSGSGSGTGFTLTISRLEPEDFAVYYCQQYGSSPWTFGQGTKVEIK
Consider B5, for which the concentration for a half-maximal effect (EC50) in assay [1] is 0.03 mg/L.

B6: MnC4t1p1_A11 (antibody, V domains shown)
VH: EVQLVESGGGLVQPGGSLRLSCAASGFTFSSYSMNWVRQAPGKGLEWVSYISSSSNTRYYTDSVMGRFTISRDNAKNSLFLQMNSLRAEDTAVYYCASSKGFCSGGSCSDYWGQGTLVTVSS
VL: B5 VL with H39Q, C50Y, A52V, G71D, A85V, Q90H
For B6, the EC50 in assay [3] worked out at 0.05 mg/L.

B7: MnC2t2p1_C11 (antibody, V domains shown)
VH: QVQLVQSGAEVKKPGSSVKVSCKASGGTFSRYTIIWVRQAPGQGLEWMGRIIPILDIANYAQKFQGRVTITADKSTSTAYMELSSLRSEDTAVYYCAREGGLDYFGSRNSGWTYTWFDPWGQGTLVTVSS
VL: DIQMTQSPSSLSASVGDRVTITCRASQNISSYLNWYQQKPGKAPNLLIYAASSLQSGVPPRFSGSGSGTDFTLTISSLQPEDFATYYCQQSYSTLYSFGQGTKLEIK
In assay [3], B7 returned a concentration giving a half-maximal response (EC50) of 0.02 mg/L.
